Laboratory results published in the supplement of paper PMC5998384.

What was measured:
HeLa Kyoto [1] = assay: solubility in G1/S (NP-40 vs SDS abundance) (log2 ratio); higher = more soluble; details: cell cycle stage: G1/S
HeLa Kyoto [2] = assay: melting temperature (median over replicates), in situ; higher = more thermally stable
HeLa Kyoto [3] = assay: solubility change mitosis vs G1/S (difference of NP-40 vs SDS log2 ratios) (log2 ratio difference); higher = more soluble in mitosis
HeLa Kyoto [4] = assay: thermal stability score vs G1/S (z-score of summed log2 fold changes over temperatures); higher = more thermally stable than in G1/S
[5] = cell cycle stage: early G1 (4.5 h after nocodazole release)
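For melting temperature (median over replicates), in situ in this document: HeLa Kyoto cells synchronized by double thymidine or nocodazole block, proteins quantified by TMT10plex mass spectrometry, three independent biological replicates.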
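For solubility change mitosis vs G1/S (difference of NP-40 vs SDS log2 ratios) in this document: synchronized HeLa Kyoto cells (double thymidine block for G1/S, nocodazole release for mitosis), protein amounts in NP-40 versus SDS lysates quantified by mass spectrometry, three biological replicates.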
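For solubility in G1/S (NP-40 vs SDS abundance) in this document: HeLa Kyoto cells arrested at G1/S by double thymidine block, proteins quantified by TMT10plex mass spectrometry in mild NP-40 versus SDS extracts, three biological replicates.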
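For thermal stability score vs G1/S (z-score of summed log2 fold changes over temperatures) in this document: synchronized HeLa Kyoto cells, proteins quantified by TMT10plex mass spectrometry, three biological replicates, mitosis taken 0.5 h after nocodazole release, G1/S directly after double thymidine block.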

Row | Sequence | solubility in G1/S (log2) (HeLa Kyoto [1]) | melting temperature (HeLa Kyoto [2]; cell cycle stage: G1/S) [°C] | melting temperature (HeLa Kyoto [2]; cell cycle stage: mitosis) [°C] | solubility change mitosis (log2) (HeLa Kyoto [3]) | thermal stability score (HeLa Kyoto [4]; [5]) | thermal stability score (HeLa Kyoto [4]; cell cycle stage: mitosis)
1 | MASASTSKYNSHSLENESIKRTSRDGVNRDLTEAVPRLPGETLITDKEVIYICPFNGPIKGRVYITNYRLYLRSLETDSSLILDVPLGVISRIEKMGGATSRGENSYGLDITCKDMRNLRFALKQEGHSRRDMFEILTRYAFPLAHSLPLFAFLNEEKFNVDGWTVYNPVEEYRRQGLPNHHWRITFINKCYELCDTYPALLVVPYRASDDDLRRVATFRSRNRIPVLSWIHPENKTVIVRCSQPLVGMSGKRNKDDEKYLDVIRETNKQISKLTIYDARPSVNAVANKATGGGYESDDAYHNAELFFLDIHNIHVMRESLKKVKDIVYPNVEESHWLSSLESTHWLEHIKLVLTGAIQVADKVSSGKSSVLVHCSDGWDRTAQLTSLAMLMLDSFYRSIEGFEILVQKEWISFGHKFASRIGHGDKNHTDADRSPIFLQFIDCVWQMSKQFPTAFEFNEQFLIIILDHLYSCRFGTFLFNCESARERQKVTERTVSLWSLINSNKEKFKNPFYTKEINRVLYPVASMRHLELWVNYYIRWNPRIKQQQPNPVEQRYMELLALRDEYIKRLEELQLANSAKLSDPPTSPSSPSQMMPHVQTHF [MTM1] | -0.0766 | 55.2 | 54 | 0.0496 | -1.72 | -2.37
2 | MASASYHISNLLEKMTSSDKDFRFMATNDLMTELQKDSIKLDDDSERKVVKMILKLLEDKNGEVQNLAVKCLGPLVSKVKEYQVETIVDTLCTNMLSDKEQLRDISSIGLKTVIGELPPASSGSALAANVCKKITGRLTSAIAKQEDVSVQLEALDIMADMLSRQGGLLVNFHPSILTCLLPQLTSPRLAVRKRTIIALGHLVMSCGNIVFVDLIEHLLSELSKNDSMSTTRTYIQCIAAISRQAGHRIGEYLEKIIPLVVKFCNVDDDELREYCIQAFESFVRRCPKEVYPHVSTIINICLKYLTYDPNYNYDDEDEDENAMDADGGDDDDQGSDDEYSDDDDMSWKVRRAAAKCLDAVVSTRHEMLPEFYKTVSPALISRFKEREENVKADVFHAYLSLLKQTRPVQSWLCDPDAMEQGETPLTMLQSQVPNIVKALHKQMKEKSVKTRQCCFNMLTELVNVLPGALTQHIPVLVPGIIFSLNDKSSSSNLKIDALSCLYVILCNHSPQVFHPHVQALVPPVVACVGDPFYKITSEALLVTQQLVKVIRPLDQPSSFDATPYIKDLFTCTIKRLKAADIDQEVKERAISCMGQIICNLGDNLGSDLPNTLQIFLERLKNEITRLTTVKALTLIAGSPLKIDLRPVLGEGVPILASFLRKNQRALKLGTLSALDILIKNYSDSLTAAMIDAVLDELPPLISESDMHVSQMAISFLTTLAKVYPSSLSKISGSILNELIGLVRSPLLQGGALSAMLDFFQALVVTGTNNLGYMDLLRMLTGPVYSQSTALTHKQSYYSIAKCVAALTRACPKEGPAVVGQFIQDVKNSRSTDSIRLLALLSLGEVGHHIDLSGQLELKSVILEAFSSPSEEVKSAASYALGSISVGNLPEYLPFVLQEITSQPKRQYLLLHSLKEIISSASVVGLKPYVENIWALLLKHCECAEEGTRNVVAECLGKLTLIDPETLLPRLKGYLISGSSYARSSVVTAVKFTISDHPQPIDPLLKNCIGDFLKTLEDPDLNVRRVALVTFNSAAHNKPSLIRDLLDTVLPHLYNETKVRKELIREVEMGPFKHTVDDGLDIRKAAFECMYTLLDSCLDRLDIFEFLNHVEDGLKDHYDIKMLTFLMLVRLSTLCPSAVLQRLDRLVEPLRATCTTKVKANSVKQEFEKQDELKRSAMRAVAALLTIPEAEKSPLMSEFQSQISSNPELAAIFESIQKDSSSTNLESMDTS [CAND1] | 0.0808 | 56.9 | 56.2 | -0.0927 | -0.92 | -0.546
3 | MASGQGPGPPRQECGEPALPSASEEQVAQDTEEVFRSYVFYRHQQEQEAEGVAAPADPEMVTLPLQPSSTMGQVGRQLAIIGDDINRRYDSEFQTMLQHLQPTAENAYEYFTKIATSLFESGINWGRVVALLGFGYRLALHVYQHGLTGFLGQVTRFVVDFMLHHCIARWIAQRGGWVAALNLGNGPILNVLVVLGVVLLGQFVVRRFFKS [BAK1] | -0.215 |  | 55.7 | -0.0672 | -0.0676 | -0.207
4 | MASGSVAECLQQETTCPVCLQYFAEPMMLDCGHNICCACLARCWGTAETNVSCPQCRETFPQRHMRPNRHLANVTQLVKQLRTERPSGPGGEMGVCEKHREPLKLYCEEDQMPICVVCDRSREHRGHSVLPLEEAVEGFKEQIQNQLDHLKRVKDLKKRRRAQGEQARAELLSLTQMEREKIVWEFEQLYHSLKEHEYRLLARLEELDLAIYNSINGAITQFSCNISHLSSLIAQLEEKQQQPTRELLQDIGDTLSRAERIRIPEPWITPPDLQEKIHIFAQKCLFLTESLKQFTEKMQSDMEKIQELREAQLYSVDVTLDPDTAYPSLILSDNLRQVRYSYLQQDLPDNPERFNLFPCVLGSPCFIAGRHYWEVEVGDKAKWTIGVCEDSVCRKGGVTSAPQNGFWAVSLWYGKEYWALTSPMTALPLRTPLQRVGIFLDYDAGEVSFYNVTERCHTFTFSHATFCGPVRPYFSLSYSGGKSAAPLIICPMSGIDGFSGHVGNHGHSMETSP [TRIM27] | -0.499 | 50.9 | 50.5 | -0.135 | 1.44 | 3.24
5 | MASGVQVADEVCRIFYDMKVRKCSTPEEIKKRKKAVIFCLSADKKCIIVEEGKEILVGDVGVTITDPFKHFVGMLPEKDCRYALYDASFETKESRKEELMFFLWAPELAPLKSKMIYASSKDAIKKKFQGIKHECQANGPEDLNRACIAEKLGGSLIVAFEGCPV [DSTN] | 0.0748 | 54.1 | 53.3 | -0.06 | -0.977 | -2.53
6 | MASKCPKCDKTVYFAEKVSSLGKDWHKFCLKCERCSKTLTPGGHAEHDGKPFCHKPCYATLFGPKGVNIGGAGSYIYEKPLAEGPQVTGPIEVPAARAEERKASGPPKGPSRASSVTTFTGEPNTCPRCSKKVYFAEKVTSLGKDWHRPCLRCERCGKTLTPGGHAEHDGQPYCHKPCYGILFGPKGVNTGAVGSYIYDRDPEGKVQP [CRIP2] | 0.608 | 55 | 53.2 | 0.0882 | -3.58 | -3.7
7 | MASLEVSRSPRRSRRELEVRSPRQNKYSVLLPTYNERENLPLIVWLLVKSFSESGINYEIIIIDDGSPDGTRDVAEQLEKIYGSDRILLRPREKKLGLGTAYIHGMKHATGNYIIIMDADLSHHPKFIPEFIRKQKEGNFDIVSGTRYKGNGGVYGWDLKRKIISRGANFLTQILLRPGASDLTGSFRLYRKEVLEKLIEKCVSKGYVFQMEMIVRARQLNYTIGEVPISFVDRVYGESKLGGNEIVSFLKGLLTLFATT [DPM1] | -0.0525 | 53.2 | 52.7 | 0.0355 | -2.69 | 1.91
8 | MASNVTNKTDPRSMNSRVFIGNLNTLVVKKSDVEAIFSKYGKIVGCSVHKGFAFVQYVNERNARAAVAGEDGRMIAGQVLDINLAAEPKVNRGKAGVKRSAAEMYGSVTEHPSPSPLLSSSFDLDYDFQRDYYDRMYSYPARVPPPPPIARAVVPSKRQRVSGNTSRRGKSGFNSKSGQRGSSKSGKLKGDDLQAIKKELTQIKQKVDSLLENLEKIEKEQSKQAVEMKNDKSEEEQSSSSVKKDETNVKMESEGGADDSAEEGDLLDDDDNEDRGDDQLELIKDDEKEAEEGEDDRDSANGEDDS [HNRNPC] | -0.0638 | 47.4 | 49.5 | 0.36 | 7.33 | 16.5
9 | MASPPHQQLLHHHSTEVSCDSSGDSNSVRVKINPKQLSSNSHPKHCKYSISSSCSSSGDSGGVPRRVGGGGRLRRQKKLPQLFERASSRWWDPKFDSVNLEEACLERCFPQTQRRFRYALFYIGFACLLWSIYFAVHMRSRLIVMVAPALCFLLVCVGFFLFTFTKLYARHYAWTSLALTLLVFALTLAAQFQVLTPVSGRGDSSNLTATARPTDTCLSQVGSFSMCIEVLFLLYTVMHLPLYLSLCLGVAYSVLFETFGYHFRDEACFPSPGAGALHWELLSRGLLHGCIHAIGVHLFVMSQVRSRSTFLKVGQSIMHGKDLEVEKALKERMIHSVMPRIIADDLMKQGDEESENSVKRHATSSPKNRKKKSSIQKAPIAFRPFKMQQIEEVSILFADIVGFTKMSANKSAHALVGLLNDLFGRFDRLCEETKCEKISTLGDCYYCVAGCPEPRADHAYCCIEMGLGMIKAIEQFCQEKKEMVNMRVGVHTGTVLCGILGMRRFKFDVWSNDVNLANLMEQLGVAGKVHISEATAKYLDDRYEMEDGKVIERLGQSVVADQLKGLKTYLISGQRAKESRCSCAEALLSGFEVIDGSQVSSGPRGQGTASSGNVSDLAQTVKTFDNLKTCPSCGITFAPKSEAGAEGGAPQNGCQDEHKNSTKASGGPNPKTQNGLLSPPQEEKLTNSQTSLCEILQEKGRWAGVSLDQSALLPLRFKNIREKTDAHFVDVIKEDSLMKDYFFKPPINQFSLNFLDQELERSYRTSYQEEVIKNSPVKTFASPTFSSLLDVFLSTTVFLTLSTTCFLKYEAATVPPPPAALAVFSAALLLEVLSLAVSIRMVFFLEDVMACTKRLLEWIAGWLPRHCIGAILVSLPALAVYSHVTSEYETNIHFPVFTGSAALIAVVHYCNFCQLSSWMRSSLATVVGAGPLLLLYVSLCPDSSVLTSPLDAVQNFSSERNPCNSSVPRDLRRPASLIGQEVVLVFFLLLLLVWFLNREFEVSYRLHYHGDVEADLHRTKIQSMRDQADWLLRNIIPYHVAEQLKVSQTYSKNHDSGGVIFASIVNFSEFYEENYEGGKECYRVLNELIGDFDELLSKPDYSSIEKIKTIGATYMAASGLNTAQAQDGSHPQEHLQILFEFAKEMMRVVDDFNNNMLWFNFKLRVGFNHGPLTAGVIGTTKLLYDIWGDTVNIASRMDTTGVECRIQVSEESYRVLSKMGYDFDYRGTVNVKGKGQMKTYLYPKCTDHRVIPQHQLSISPDIRVQVDGSIGRSPTDEIANLVPSVQYVDKTSLGSDSSTQAKDAHLSPKRPWKEPVKAEERGRFGKAIEKDDCDETGIEEANELTKLNVSKSV [ADCY9] | -0.0462 | 52.3 | 52 | -0.172 | 0.368 | -0.65
10 | MASRGATRPNGPNTGNKICQFKLVLLGESAVGKSSLVLRFVKGQFHEFQESTIGAAFLTQTVCLDDTTVKFEIWDTAGQERYHSLAPMYYRGAQAAIVVYDITNEESFARAKNWVKELQRQASPNIVIALSGNKADLANKRAVDFQEAQSYADDNSLLFMETSAKTSMNVNEIFMAIAKKLPKNEPQNPGANSARGRGVDLTEPTQPTRNQCCSN [RAB5A] | 0.00572 | 57.3 | 56.4 | 0.0351 | -1.4 | -3.38
11 | MASSAEGDEGTVVALAGVLQSGFQELSLNKLATSLGASEQALRLIISIFLGYPFALFYRHYLFYKETYLIHLFHTFTGLSIAYFNFGNQLYHSLLCIVLQFLILRLMGRTITAVLTTFCFQMAYLLAGYYYTATGNYDIKWTMPHCVLTLKLIGLAVDYFDGGKDQNSLSSEQQKYAIRGVPSLLEVAGFSYFYGAFLVGPQFSMNHYMKLVQGELIDIPGKIPNSIIPALKRLSLGLFYLVGYTLLSPHITEDYLLTEDYDNHPFWFRCMYMLIWGKFVLYKYVTCWLVTEGVCILTGLGFNGFEEKGKAKWDACANMKVWLFETNPRFTGTIASFNINTNAWVARYIFKRLKFLGNKELSQGLSLLFLALWHGLHSGYLVCFQMEFLIVIVERQAARLIQESPTLSKLAAITVLQPFYYLVQQTIHWLFMGYSMTAFCLFTWDKWLKVYKSIYFLGHIFFLSLLFILPYIHKAMVPRKEKLKKME [LPCAT3] | -0.0534 |  | 55.7 | -0.275 | 0.0481 | -0.776
